Source: patent publication US20170342148A1 (UNIVERSITE DE NANTES, published 2017)

How the values were obtained:
[1] = biological target: T1, M-CSF receptor (R&D-Systems ref: 329-MR) (UniProt P07333 20-512); assay: SPR (BIAcore T100), antibody injected over immobilised M-CSF-R
T1 construct: Bought soluble receptor, immobilised covalently on a CM5 chip; also called CSF-1 receptor; receptor M-CSF-R
Experimental: The measurement of surface plasmon resonance (SPR) was performed on BIACore T100. The microarrays CM5 (CM-dextran, 1-ethyl-3-(3-[…]) carbodiimide hydrochloride (EDC) and N-Hydroxysuccinimide (NHS) have been purchased by GE Healthcare BIAcore and used according to manufacture instructions.
The ligand, M-CSF receptor (R&D-Systems ref: 329-MR) was immobilized covalently on the CM5 microarray surface. Capture level of […] is comprised between 600 and 800 RU.
Theses interaction were performed at 25° C., in HBS-P+ buffer (HEPES 10 mM pH 7.4; NaCl 150 mM; P20 0.05%).

[2] = biological target: T2, recombinant protein IL-34 (Peprotech Ref 200-34, whole protein without signal peptide with His tag on … (UniProt Q6ZMJ4 21-242)); assay: SPR (BIAcore T100), antibody captured on immobilised polyclonal anti-mouse antibody, IL-34 as analyte, 25 °C, 1:1 model
T2 construct: mature; also called IL-34 protein; recombinant IL-34; not shown: C-terminal His tag
T2 sequence (looked up): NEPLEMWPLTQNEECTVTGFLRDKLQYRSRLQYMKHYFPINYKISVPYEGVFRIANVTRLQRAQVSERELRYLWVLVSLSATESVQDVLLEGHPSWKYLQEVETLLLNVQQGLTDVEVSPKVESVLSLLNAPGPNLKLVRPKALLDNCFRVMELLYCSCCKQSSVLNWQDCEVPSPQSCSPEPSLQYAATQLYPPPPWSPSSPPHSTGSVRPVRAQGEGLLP
Experimental: (§1) Theses interaction were performed at 25° C., in HBS-P+ buffer (HEPES 10 mM pH 7.4; NaCl 150 mM; P20 0.05%) by administrating different concentrations of IL-34 obtained by serial dilution of the protein IL-34 (Peprotech Ref 200-34, whole protein without signal peptide with His tag on C-terminal).
(§2) The regeneration is performed by administering 10 mM of Glycine-HCl buffer at pH=1.7 allowing dissociating the antibody IL-34 from immobilized polyclonal antibody.
The obtained results are shown by sensograms of FIG. 2.

[3] = biological target: T2, recombinant protein IL-34 (Peprotech …); assay: SPR (BIAcore T100), antibody captured, IL-34 as analyte
Experimental: as §1, §2

T1 sequence (P07333 20-512 limits assumed): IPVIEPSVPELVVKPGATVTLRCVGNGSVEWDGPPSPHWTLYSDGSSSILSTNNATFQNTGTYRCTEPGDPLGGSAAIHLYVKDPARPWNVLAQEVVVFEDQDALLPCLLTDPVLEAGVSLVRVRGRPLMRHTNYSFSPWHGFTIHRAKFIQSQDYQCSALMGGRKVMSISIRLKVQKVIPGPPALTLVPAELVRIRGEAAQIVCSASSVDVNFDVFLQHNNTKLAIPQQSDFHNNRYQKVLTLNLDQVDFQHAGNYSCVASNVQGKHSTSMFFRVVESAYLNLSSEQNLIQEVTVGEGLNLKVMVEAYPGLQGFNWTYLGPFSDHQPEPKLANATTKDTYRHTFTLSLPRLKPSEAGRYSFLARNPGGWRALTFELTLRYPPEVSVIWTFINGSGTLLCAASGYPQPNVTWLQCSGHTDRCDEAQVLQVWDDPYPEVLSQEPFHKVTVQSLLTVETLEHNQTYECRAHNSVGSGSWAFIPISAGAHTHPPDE

B1: murine anti-IL-34 antibody (clone BT34) (antibody, V domains shown)
VH: EVQLQQFGAELVKPGASVKISCKASGYTFTDYNMDWVKQSHGKSLEWIGDINPNYESTTYNQKFKGKATLTVDRSSSTAYMELRSLTSEDTAVYYCLRSGGDYWGQGTTLTVSS
VL: DVLMTQTPLSLPVGLGDQASISCRSSQTIVHSNGKTYLEWYLQKPGQSPKLLIYKVSNRFSGVPDRFSGSGSGTDFTLKISRVEAEDLGVYYCFQGSHVPLTFGAGTKLELK
notes: Murine monoclonal antibody from a hybridoma; No single sentence ties these numbers to BT34; also called anti-IL-34 antibody BT34; anti-IL-34 BT34 clone
For B1, the binding result [1] was “no binding (tested: 10 nM)”, the Kd [2] was 9.4 pM and the koff [2] was 2.9e-07 s⁻¹. For the same binder, the kon [2] was 31000 M⁻¹ s⁻¹ and the koff [3] was < 1e-06 s⁻¹.
